We go through 1 substance from US8318708B2, “Use of vitamin D receptor agonists, ligands, and precursors to treat pancreatic fibrosis” (Salk Institute for Biological Studies, priority 2007, dated 2012).

In assay [1] the target is T1, VDR (Rattus norvegicus, UniProt P13053).
T1 sequence (P13053 1-423): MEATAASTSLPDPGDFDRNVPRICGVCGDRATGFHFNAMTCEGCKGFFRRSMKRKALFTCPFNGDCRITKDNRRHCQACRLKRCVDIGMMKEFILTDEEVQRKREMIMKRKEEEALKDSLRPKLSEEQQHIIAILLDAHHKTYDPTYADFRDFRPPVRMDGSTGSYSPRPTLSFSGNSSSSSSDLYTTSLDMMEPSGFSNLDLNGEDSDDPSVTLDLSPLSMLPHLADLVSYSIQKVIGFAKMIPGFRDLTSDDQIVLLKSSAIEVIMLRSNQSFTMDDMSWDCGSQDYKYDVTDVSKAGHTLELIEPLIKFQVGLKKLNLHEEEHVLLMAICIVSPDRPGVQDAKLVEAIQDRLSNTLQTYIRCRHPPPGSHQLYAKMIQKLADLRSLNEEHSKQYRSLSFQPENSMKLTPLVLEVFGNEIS
Description: Western blot of VDR in Kupffer cells (KCs). To be noted: FIG. 10B. It counts as cell-based. Also on record: endogenous in cells; host or cells: primary rat hepatic stellate cells, sinusoidal endothelial cells, Kupffer cells and hepatocytes (Sprague-Dawley rats).
Description: Hepatic sinusoidal endothelial cells (SECs) and Kupffer cells (KCs) were elutriated from rat liver and maintained in cell culture.

Assay [2] deals with T2, VDR (Homo sapiens, UniProt P11473).
T2 construct: endogenous in cells; host or cells: human LX-2 hepatic stellate cell line
T2 sequence (P11473 1-427): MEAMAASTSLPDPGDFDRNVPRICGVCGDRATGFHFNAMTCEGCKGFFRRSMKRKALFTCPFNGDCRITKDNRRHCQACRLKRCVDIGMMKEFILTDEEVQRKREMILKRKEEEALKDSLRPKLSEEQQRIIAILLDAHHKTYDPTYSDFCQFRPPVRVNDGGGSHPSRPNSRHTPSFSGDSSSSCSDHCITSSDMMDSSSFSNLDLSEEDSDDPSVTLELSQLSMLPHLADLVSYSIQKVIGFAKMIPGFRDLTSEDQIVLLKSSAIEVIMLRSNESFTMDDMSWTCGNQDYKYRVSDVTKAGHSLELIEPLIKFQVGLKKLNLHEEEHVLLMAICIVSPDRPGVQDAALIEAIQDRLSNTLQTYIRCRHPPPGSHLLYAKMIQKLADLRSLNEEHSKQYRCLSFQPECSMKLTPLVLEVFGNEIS
Description: Real-time qPCR of CYP24A1 in human LX-2 cell line. Particulars: LX-2 cells overnight; 1,α25(OH)2D3 1 nM, TGF β1 100 pM. It counts as cell-based. The procedure: Human LX-2 cells were grown to 50% confluence in DMEM with 10% FBS in 6-Well plates.
For qRT-PCR, 500 ng of deoxyribonuclease-treated total RNA was reverse transcribed into cDNA using SuperScript™ III reverse transcriptase essentially as described by the manufacturer (Invitrogen). Quantification of gene of interest mRNA was performed using a Rotor-Gene, RG 6000 (Corbett Research). […] Human B2M primers were from Applied Biosystems.
TGFβ signaling is the key mediator in hepatic fibrogenesis, triggering the transition of HSCs into myofibroblast-like cells and thereby stimulating synthesis of ECM proteins. Thus, TGFβ1 is produced locally in the organ as part of the fibrotic process It has been previously reported that TGFB signaling can influence the activity of VDR-dependent genes, as depicted in (FIG. 8A). In this model, TGFβ activation results in SMAD3 phosphorylation, inducing its translocation into the nucleus where it associates with the ligand bound VDR complex. Phosphorylated SMAD3 acts as a co-activator in the VDR/vitaminD3 complex enhancing the transcriptional potential of VDR on target genes. To understand the interplay between TGFB and VDR signaling pathways, the effects of TGFβ on the well characterized VDR gene target Cyp24α1 were examined.

Regarding “TGF-β1: transforming growth factor beta 1; human recombinant from Sigma-Aldrich T7039”, the VDR protein expression result in assay [1] is “induced”. Further, in assay [2], the “CYP24a1 gene expression (QPCR, normalized to 36B4)” value was “no effect”.
